doi:10.1101/2021.11.28.470279

Molecular target: ΔAPE1 E96Q/D210N (catalytically dead, crystallization construct) (Homo sapiens (human), UniProt P27695 44-318, C138A;E96Q;D210N)
Experiment: crystal structure

Sequence of ΔAPE1 E96Q/D210N (catalytically dead, crystallization construct) (P27695 44-318 E96Q/C138A/D210N): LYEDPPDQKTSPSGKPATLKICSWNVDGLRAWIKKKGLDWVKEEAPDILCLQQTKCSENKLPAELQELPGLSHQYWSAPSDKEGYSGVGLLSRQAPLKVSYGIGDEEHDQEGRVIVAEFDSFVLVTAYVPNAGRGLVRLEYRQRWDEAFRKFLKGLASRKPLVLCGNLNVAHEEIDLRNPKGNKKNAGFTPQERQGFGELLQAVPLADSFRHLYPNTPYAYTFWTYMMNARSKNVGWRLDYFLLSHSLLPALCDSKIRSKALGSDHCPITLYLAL

B1: 21-mer nicked 3'-8oxoG opposite C (crystal) (dsDNA)
DNA 1: GGATCCGTCGACCGCATCAGC
DNA 2: GCTGATGCGG
DNA 3: TCGACGGATCC
modifications: 8-oxoG at 3' end of upstream strand (strand 2, written G); 5'-phosphate on downstream strand (strand 3)
- binding result: binds
